{
  "source": "patent US20190367620A1",
  "about": "(Merck KGaA, published 2019)",
  "binders": {"B1": {"name": "mAb #A08 (antibody, V domains shown)", "VH": "EVQLQESGPGLVKPSGTLSLTCAVSGGSISSNNWWSWVRQPPGKGLEWIGEIYHSGSTSYNPSLKSRVTISVDKSKNQFSLKLNSVTAADTAVYYCARGTDWFDPWGQGTLVTVSS", "VL": "QAVLTQPPSVSVAPGQTARITCGGNNIGSESVHWYQQKPGQAPVLVVYDDSDRPSGIPERFSGSNSGNTATLTISRVEAGDEADYYCQVWDSTSDHRVFGGGTKLTVL", "notes": "Only variable domains are tied to the name mAb #A08 (hit); also called #A08 hit; mAb #08"}},
  "experiment_in_all_cases": "SPR as in Example 1.8",
  "key": {"[1]": {"biological_target": "T1, FGFR1 D2 point mutant Y94A (human, UniProt P11362 22-254)", "T1 construct": "Uncharacteristic melting curve", "T1 chain": "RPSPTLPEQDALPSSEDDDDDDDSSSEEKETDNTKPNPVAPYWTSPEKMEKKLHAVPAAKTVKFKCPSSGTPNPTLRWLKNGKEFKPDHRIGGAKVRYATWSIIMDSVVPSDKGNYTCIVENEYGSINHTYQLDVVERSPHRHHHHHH", "description": "(§1) Binding affinities of anti-FGFR1 antibodies to FGFR1 were measured by Surface Plasmon Resonance (SPR) using a GE Healthcare BIAcore 4000 instrument as follows. Goat anti-human Fc antibody (Jackson ImmunoResearch Laboratories #109-005-098) was first immobilized on BIAcore carboxymethylated dextran CM5 chip using direct coupling to free amino groups following the procedure described by the manufacturer. Antibodies were then captured on the CM5 biosensor chip to achieve approximately 200 response units (RU). Binding measurements were performed using the running HBS-EP+ buffer. A 2-fold dilution series of His-tagged FGFR1 proteins were injected at a flow rate of 30 μl/min at 25° C. Association rates (kₒₙ, per mol/s) and dissociation rates (koff, per s) were calculated using a simple 1:1 Langmuir binding model (Biacore 4000 Evaluation Software). The equilibrium dissociation constant (KD, mol) was calculated as the ratio of koff/kₒₙ.\n(§2) To obtain a finer, residue-level mapping of the epitope and to complement the HD exchange data, molecular modelling and manual inspection of the crystal structure of FGFR1 [(Beenken et al. 2012); PDB record 3OJV] was used to select solvent exposed residues within and around the epitope identified by HD exchange. The selected residues were mutated either to alanine (large to small) or to glycine if the selected residue was alanine. In total 35 point mutants were designed, expressed and purified in HEK cells, and tested for binding to mAb #A08 using surface plasmon resonance as described in Example 1.8. The affinity of the antibody for wild-type and each mutant was determined and used to calculate the contribution of each epitope residue to the binding energy."}, "[2]": {"biological_target": "T2, human FGFR1b-IIIb extracellular domain with a HIS tag (human)", "T2 construct": "also called huFGFR1b-IIIb; hFGFR1b-IIIb", "T2 chain": "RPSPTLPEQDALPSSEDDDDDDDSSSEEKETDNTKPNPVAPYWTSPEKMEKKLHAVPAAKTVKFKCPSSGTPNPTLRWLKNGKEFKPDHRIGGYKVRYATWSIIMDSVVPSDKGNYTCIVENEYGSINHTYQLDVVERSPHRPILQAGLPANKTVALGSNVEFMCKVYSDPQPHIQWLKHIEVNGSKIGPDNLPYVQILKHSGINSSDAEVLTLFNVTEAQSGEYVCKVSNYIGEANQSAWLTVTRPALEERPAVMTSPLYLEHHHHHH", "description": "as §1, §2"}, "[3]": {"biological_target": "T3, FGFR1 D2 point mutant Y98A (human, UniProt P11362 22-254)", "T3 chain": "T1 chain with A94Y, Y98A", "description": "as §1, §2"}, "[4]": {"biological_target": "T4, FGFR1 D2 point mutant D88A (human, UniProt P11362 22-254)", "T4 chain": "T1 chain with D88A, A94Y", "description": "as §1, §2"}, "[5]": {"biological_target": "T5, FGFR1 D2 point mutant T100A (human, UniProt P11362 22-254)", "T5 chain": "T1 chain with A94Y, T100A", "description": "as §1, §2"}, "[6]": {"biological_target": "T6, FGFR1 D2 point mutant G92A (human, UniProt P11362 22-254)", "T6 chain": "T1 chain with G92A, A94Y", "description": "as §1, §2"}, "[7]": {"biological_target": "T7, FGFR1 D2 point mutant A55G (human, UniProt P11362 22-254)", "T7 chain": "T1 chain with A55G, A94Y", "description": "as §1, §2"}, "[8]": {"biological_target": "T8, FGFR1 D2 point mutant K51A (human, UniProt P11362 22-254)", "T8 chain": "T1 chain with K51A, A94Y", "description": "as §1, §2"}, "[9]": {"biological_target": "T9, FGFR1 D2 point mutant V96A (human, UniProt P11362 22-254)", "T9 chain": "T1 chain with A94Y, V96A", "description": "as §1, §2"}, "Human FGFR1 D2-His6": {"biological_target": "T10, Human FGFR1 D2-His6 (human, UniProt P11362 22-254)", "T10 construct": "also called D2 domain; F3FR1c-D2", "T10 sequence": "T1 chain with A94Y", "description": "as §1, §2"}},
  "note": "Numbering of substitutions follows the chain as printed.",
  "data": [
    {"binder": "B1", "values": [
      {"measurement": "Kd", "setting": "[1]", "value": 0.99, "unit": "nM"},
      {"measurement": "Kd", "setting": "[2]", "value": 0.47, "unit": "nM"},
      {"measurement": "Kd", "setting": "[3]", "value": 0.18, "unit": "nM"},
      {"measurement": "Kd", "setting": "[4]", "value": 0.16, "unit": "nM"},
      {"measurement": "Kd", "setting": "[5]", "value": 0.24, "unit": "nM"},
      {"measurement": "Kd", "setting": "[6]", "value": 0.28, "unit": "nM"},
      {"measurement": "Kd", "setting": "[7]", "value": 0.22, "unit": "nM"},
      {"measurement": "Kd", "setting": "[8]", "value": 0.31, "unit": "nM"},
      {"measurement": "Kd", "setting": "[9]", "value": 0.19, "unit": "nM"},
      {"measurement": "Kd", "setting": "Human FGFR1 D2-His6", "value": 0.19, "unit": "nM"}
    ]}
  ]
}
